The subject of the data set is HEK293T. As to the kind of experiment: median enrichment of reporter reads in eGFP-reduced (low/intermediate) vs eGFP-high sorted cells (eGFP-extension fusion abundance) (ratio); higher = stronger loss of eGFP-fusion protein abundance (more destabilising extension).
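Also: lentiviral eGFP-IRES-mCherry reporter pool sorted by FACS 96 h post-transduction, gated on mCherry-high cells, Illumina read counts normalized per million, median across four biological replicates.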

As for SDP [CYGB], the median enrichment stood at 0.606.
For the substance QQQQQQQQQQ [Gln10], the median enrichment is 0.317.
As for SSSS [Ser04], the figure is 0.471; as for “RVYTRTMWYVARPGPGVRLGQPQLSLPLLLIQGVTRHLSLCYFWPQQEPVLGYFCPCSSQPNSGLAHPSPPPKAAEAVGGTGP [KCNJ11]”, 4.66.
For the substance “REEWGRLRSCGPRPRSLRGCLGDHLDLEAESAILPD [DHRS2]”, the median enrichment was 2.36.
Consider GGG [Gly03], for which the median enrichment was 1.62.
On to KLSNH [WDR27], for which the median enrichment was determined as 0.453.
For the substance KQQPV [DPPA2], the median enrichment came out at 0.433.
For SFHLLKPAYFRTLRLTVFSLLMMSSC [PIK3AP1], the median enrichment worked out at 11.1.
For LRICRRFPFMKH [CUL4A], the median enrichment worked out at 8.83.
Consider “CGCAPAGSSKDRPARSPSNPTFFWKGGVLQGQAGASSRLLGANPSMYIAFLSCLRAADSQRCARGERCAVGSRA [TNFRSF1A]”, for which the median enrichment came out at 13.5.
The result for RLYRLRR [ST3GAL6] reads 10.7; that for CLERW [LCOR], 1.17.
Regarding “SSFIGLNTVCFYQSGHWHCLLFYNHVDTSISKENLSTR [RARS]”, the median enrichment amounted to 8.65.
On to YYCTELP [ADAM18], for which the median enrichment worked out at 4.78.
With GLPS [TMEM107], the median enrichment stood at 0.716.
As for YLSNH [WDR27], the figure is 3.24; as for LTLLKTGQSLPLCTF [MYCN], 15.2.
QCHLLSPTTP [PPY]: the median enrichment stood at 0.404.
As to “RVSSPTRSLARPLALQLLFGGGIPHSFLGTHSHAHCRSINSNPHFRPKIMRPHLVSTFPRPCSKPNPFLPSGSQNLLSPTATT [RNF39]”, the median enrichment came out at 6.99.
The result for EGN [CYTL1] reads 0.312.
The result for SAPPAACPACPACLSRHTGFRTC [DIS3L2] reads 16.6; that for WGEKPQKGKLQTSWETCAKDFAD [CXCL14], 0.277; that for “LWLPRPGRLLDILFWLNIVLWMVPQSGARILPRRKATNGSGNYIKPETLQQGENCAPGCLAQASLEPSKHFCPS [MAB21L3]”, 6.66.
WEAGWG [RPS6KB2]: the median enrichment worked out at 1.06.
As for MALAVRVVYCGA [Degron KLHDC2], the median enrichment was determined as 5.57.
On to KELFQFIE [FOXJ3], for which the median enrichment turned out to be 0.495.
Regarding LSCPDAME [MYH2], the median enrichment was 0.416.
Take YKMIVLTPYTNVLLLALIKLLEG [MAX]: the median enrichment is 15.5.
As for EPKEVPGTVSDLERSQKENNIIK [CELA2A], the figure is 0; as for QAMPRPRT [CREB3L1], 0.317; as for WLYESFCHKVPKRRGMGRVPQHVVTA [DSN1], 11.
The result for QRLDMLSPNEPLSSPGEGR [ISX] reads 0.656; that for RRLSISRDMVLTQQFPVMAKCSI [IL13RA2], 6.6; that for QSPSAARKCWSWSKIGFFKIFLVIREYI [PSD3], 7.26.
FFF [Phe03]: the median enrichment came to 5.17.
As for NNNNNNN [Asn07], the figure is 0.297; as for WPFSWATLQSLPPFGR [ZNRD1], 6.12.
For the substance LIFLI [MAP2], the median enrichment stood at 6.91.
Turning to WPEPLADITAGDEEPGLLLLLPVAPGVEVG [LIMD1], the median enrichment was determined as 12.
The result for YRHLVVFWEQKNYFLLTRLFVLKTIFLNLS [EP300] reads 14.
Turning to LVRIFNIFQKCIYIVLLCFFHCTL [SLC39A12], the median enrichment worked out at 9.98.
In the case of “SKRPGRKPPPLKVVFVTVLWSIVLKMGNYILLCQGQQTPAVKGIPSARRLFGACMFIAPARPDRGLLHKPCLVHFFTCKGTEC [AHNAK]”, the median enrichment was 7.93.
Consider VVV [Val03], for which the median enrichment was determined as 0.518.
Regarding “GGAVAANTPASGLLVAAPGDTPAKPTRWRGPPWSLATLPASAQGPLPSPGHLLCRRHSSQKPLSQKRLVFKKSRFFAPEVSFR [AP1M1]”, the median enrichment is 5.45.
Turning to KKKKKKKKK [Lys09], the median enrichment stood at 3.65.
Turning to CGA [FOSL1], the median enrichment was found to be 0.817.
On to QEGPGGPAVLSPAPLGGVW [GALNT2], for which the median enrichment amounted to 0.738.
On to “WPLQQNSFVLCGAMPSLTPNRVSVILRTFYPQHL [CPNE3]”, for which the median enrichment worked out at 16.4.
Take RTILELTRFVCL [KRTAP20-1]: the median enrichment was 7.89.
Take SKQVTDLF [FOXN3]: the median enrichment stood at 0.53.
The result for “SKQKHQHTSLDNSIWSTRLSYRFNFFCILRTL [HNRNPH3]” reads 6.48; that for “AGAQPLPGMRLSADGETATQSFGLCVCVCVCVCVCAHPRVPVCVRILPPGAEVPWVSPLLCNGLLTGAAAPRGLCSGGTQCRM [FGFR3]”, 6.29; that for “GGAAAAWSLRPSRPPSAAPSAAVCVAWASFQLTHGLKNRCFI [TMEM18]”, 5.44.
With “KISVETYTVSSQLLMVLMSLDLDTGLVPSLVSKCLILRVK [VHL]”, the median enrichment came to 5.01.
As for “YSSSPVDEHLGWKFCSHTQDTAQDPAGVFFSVVRCTIGLMSIVLEDERKLRRTRSTDPDVIKHFVVSLSHR [BICD1]”, the figure is 3.59.
Consider “CRALMSPTRKLTPNKRLPFPLGFFVLFLSKRDR [IPO5]”, for which the median enrichment is 4.2.
For the substance “LPAASLHAPRSSLHGSPGRWQTMLRLHQGHRGAEGPMGEERRALLGKVGFLDPRDKLFRCHNVEESTWGTTVLVQVGLGKCTS [IGHMBP2]”, the median enrichment is 3.92.
With LRPGHPDVLLKGAPRAGRGL [CBLC], the median enrichment came to 1.91.
The result for SLLLVPK [RBKS] reads 1.87.
Regarding CRVSLWPLSGIPGGRGGEGGTHIVNS [BDH1], the median enrichment was determined as 6.12.
Take PPPPPPPPP [Pro09]: the median enrichment turned out to be 3.45.
YDTP [CD1A]: the median enrichment was 0.395.
In the case of RKSNASRLSEA [VHLL], the median enrichment came to 0.269.
As to CAQKS [LCE6A], the median enrichment was found to be 0.549.
Turning to RKWNS [GCSH], the median enrichment is 0.655.
Turning to QISTNKSKTNSRIPDCPIPI [PTCHD3], the median enrichment amounted to 2.49.
Consider “QRHASFTISGKRTHCAYSDCRVYKRQPFGYYCCKVQILQASSDICIYCHYCLWKKQGIKVPVHLMYYFL [NEUROD1]”, for which the median enrichment was 14.6.
For STRRPSPQKP [ERBB2], the median enrichment came to 0.591.
Turning to “WWHELLASLDGQSKKKLVYFVQICHKLKAVTGEKD [PIWIL4]”, the median enrichment is 22.9.
In the case of “ELSASARRASLPNQPWVPGSRLEPAINSLFLAPGSNGGPHLRTSGEAIAPSGEVMHFLSTYCLPGPRAHGEETWAHPCRKRDN [TSSK6]”, the median enrichment is 3.11.
Consider GACFAVGHPAKQANMETTCNLARLYLV [DDX3X], for which the median enrichment amounted to 17.6.
The result for YKISPLPACCKVT [CAMKK2] reads 11.5.
As to QCLPERVVRWCHVGEQVSFRTQRRPPFCK [ACTR3B], the median enrichment was determined as 5.17.
Take LSSQLPGPLP [COMMD9]: the median enrichment was 0.399.
In the case of YGWGRVAASFVPTGGSHNSFDL [ELP5], the median enrichment is 5.96.
For YRTDVE [HEY1], the median enrichment is 0.613.
In the case of WGC [PIGN], the median enrichment was determined as 0.651.
Consider LGRTSALSDRTLRAMLPCHP [MRGPRX3], for which the median enrichment amounted to 7.42.
As for “CMNEWVCWVGEGPGEGSGTEGMPGSLLPTASTDQQGLGQGGHPGGRGRLPPCLPAGGPRRRAGRVHVCGCPGDPGCLPCLPRP [TMEM91]”, the figure is 4.17; as for RDI [ACSM2A], 0.259.
In the case of “SDQAVLEDRQIYTPHTHTTYTTHTRSHPLTHTLHRLLPYSWTFI [BMP4]”, the median enrichment was 9.46.
For YGTKPRRIPPQ [CA10], the median enrichment was 0.595.
As for “REGSNGSRELDTVHPNTSPPPGHLEESSARIPRQSSPPAPAVPSCAVLLPHSAPGPCPFIPLKHPLKPLHHFHSQQKVIEHLL [HAUS5]”, the median enrichment was 7.
For WSSVVE [TMEM17], the median enrichment came out at 0.673.
For the substance YCRREVSSLCLVCNSSWA [REG3A], the median enrichment worked out at 7.13.
For the substance “RGGRTSNLPKRLPCPNPFITPSFRHPQPLLAQKENWGLRVGTQA [TNF]”, the median enrichment worked out at 7.66.
Consider “YEISLPGWEERKWGCPGETRNLPSPGWGQGLC [HOXB13]”, for which the median enrichment was 3.71.
Turning to CRRPPGGGSGGRCVDPTASSSY [FRAT2], the median enrichment was found to be 0.875.
Regarding LLRG [ARPP19], the median enrichment is 4.64.
Regarding “RERTTPSLPSMDGHSSAASSATSCSQPMPGGAAIFSPHHPFTHS [EHMT2]”, the median enrichment stood at 0.484.
As for “ESFHMIFCHIKHIVCLTVYRILKCSGCKTRDYLYAQNSYIFINEFNILFILVRAGQPFWVTQLIYQLIQIIEYIHNQADTS [PLS1]”, the figure is 11.2; as for “YHRPVPGATWGPCGGKPFPPPRGDAQPPSGPPFGHHQVPKVPQEASTLHARPASISLSFPVWPSFEGHVRWRSQARQTLTRGL [PLPP7]”, 8.18.
For the substance SRPWSESAPVGILPPPCWPPFSPQPLR [PGAP3], the median enrichment turned out to be 14.1.
As to KQRRWTFCSNVYMYRIVHTSNSEDLYL [SLC10A7], the median enrichment was 6.06.
For LSRLW [CREG1], the median enrichment came to 16.6.
The result for CGPGGSGRGWPHPHDHCPGGGGLLLLSF [BIK] reads 10.6.
For the substance WKGRAQQCK [IRX2], the median enrichment worked out at 0.459.
With QQQQQ [Gln05], the median enrichment is 0.381.
Turning to “GNHGARAARCVQRRAHRHHPHPDQPAYRGARAPLPEAAQGHQR [UCKL1]”, the median enrichment came to 0.821.
For CGALRPS [PNKD], the median enrichment stood at 0.539.
Take WFST [SEMA3D]: the median enrichment is 2.02.
For SLYKKVGTMAAG [Degron KLHDC3], the median enrichment stood at 7.34.
As for CELLPCPSFPPCTT [FEZF2], the median enrichment is 0.681.
As for GVPGHSGLVQTPLL [PAF1], the figure is 0.255.
In the case of RNRGLNVFRVRMP [PARD6B], the median enrichment came out at 4.57.
As for “QCLWPSILISLMRILLALLSLVGICQAQCFNLKLILCFRCQSRYQQPFDPTTALYILVEDFHPCAWKRCSWYIVKK [TCEAL3]”, the figure is 10.4.

Source of the values: the supplement of paper PMC11502859.
